Reference: patent publication US20240027467A1 (VIB VZW, published 2024)
Positions count from the first letter of the chain named. Names may count otherwise. Like-named read-outs stand apart in the source and are kept apart here.

Assays:
[1] = biological target: EPEA-tagged GFP (GFP-EPEA) protein; assay: BLI; analyte not stated
[2] = biological target: T1, native human coagulation factor IX (human, UniProt P00740 47-461); assay: NANEX column: 30 mL human plasma recirculated over immobilised CA11143; A280, SDS-PAGE and western blot [D00046 FIG. 42B; D00047 FIG. 42C]
T1 construct: Native protein captured from plasma; also called FIX
Experimental: (§1) 30 mL of human recovered plasma treated with ACD anticoagulant was loaded on this NANEX column by recirculation for 120 minutes. […] FIG. 42B) SDS-PAGE of representative fractions of the purification and FIG. 42C) the western blot of these fractions. MW, molecular weight marker (PageRuler™ Prestained Protein Ladder); and asterisk (*), commercial native human coagulation factor IX (used as control).
(§2) The purification process was monitored by measuring the absorbance at 280 nm (Protein absorption) (FIGS. 42A-42C). The elution peak was collected in 750 μl fractions and the fractions were analyzed in SDS/PAGE gel and by western blot including a commercial human coagulation factor IX as a positive control (FIGS. 42A-42C). Regeneration of the column was obtained by 5 CV of 200 mM Glycine buffer pH 2.3.

[3] = biological target: T1, native human coagulation factor IX; assay: NANEX column: 30 mL human recovered plasma recirculated over immobilised MegaBody CA16388; A280, SDS-PAGE and western blot [D00048 FIG. 43B; D00048 FIG. 43C]
Experimental: The purification process was monitored by measuring the absorbance at 280 nm (Protein absorption) (FIGS. 43A-43C). The elution peak was collected in 750 μl fractions and analysed in SDS/PAGE gel and western blot including commercial human coagulation factor IX as a control (FIGS. 43A-43C).

GFP protein [4] = biological target: T2, GFP protein (Aequorea victoria (Water jellyfish) …, UniProt P42212 1-238 = GFP); assay: BLI (OctetRed), biotinylated Nb on streptavidin sensor, GFP as analyte
T2 construct: Purified GFP used as BLI analyte, in crystals and in NANEX; also called Green fluorescent protein
Experimental: (§3) Streptavidin-coated Octet® biosensors were used to capture biotinylated Nanobodies (1 μg/mL). Binding and dissociation isotherms at several GFP concentrations (1 nM to 5 μM range) were analyzed on an OctetRed (molecular devices). All assays were performed in Hepes 25 mM pH7.5, NaCl 150 mM supplemented with BSA 0.1% and Tween²⁰ 0.005% at room temperature.

[5] = biological target: T3, CA16607 eGFP-tagged human recombinant glucocorticoid receptor (eGFP-6His-TEV-GR) (human); assay: NANEX column: HEK293T lysate with GFP-GR on immobilised CA15816; A280/A488, SDS-PAGE, western blot [D00049 FIG. 44B]
T3 construct: Expressed in HEK293T cells, captured from the lysate; also called GFP-GR; eGFP-GR

[6] = biological target: T4, CA16976 eGFP-tagged human recombinant androgen receptor (eGFP-6His-TEV-ARb) (human); assay: NANEX column: HEK293T lysate with GFP-ARb on immobilised CA15816; A280/A488
T4 construct: Expressed in HEK293T cells, captured from the lysate; also called GFP-ARb; eGFP-ARb
Experimental: 10 mL of lysate was injected on this NANEX column. […] FIG. 45A) The elution of GFP-GR by this stripper was monitored by following the absorbance at 280 nm and 488 nm. […] The right peak eluted upon regeneration with 200 mM glycine at pH 2.3. FIG. 45B) SDS-PAGE of the different purification fractions, molecular weight marker (PageRuler™ Prestained Protein Ladder).
Recombinant human eGFP-6His-TEV-AR was expressed using a pcDNA3.1+N-eGFP vector transfected into human HEK239T cells. Cells were transfected in 150×21 mm dishes (Nunclon™ Delta) using X-tremeGENE™ 9 DNA Transfection Reagent (XTG9-RO Roche) with a ratio 3:1 μL/μg DNA. After transfection, HEK239T cells were grown for 48 h at 37° C. and 5% CO₂. Cells from 3 plates were collected by pipetting and centrifugation, washed with PBS and resuspended in 10 mL lysis buffer 10 mM Hepes 7.5, 2.5 mM DTT, 1 mM EDTA, 20 mM Na₂MoO₄, 10% Glycerol (supplemented with protease inhibitors) before lysis using a Dounce homogenizer. […] Next, the column was washed with 10 CVs of washing buffer (10 mM Hepes 7.5, 2.5 mM DTT, 1 mM EDTA, 20 mM Na₂MoO₄, 10% Glycerol) using a syringe.

GFP protein [7] = biological target: T2, GFP protein; assay: BLI
Experimental: as §3

[8] = biological target: T1, native human coagulation factor IX; assay: displacement of native factor IX from immobilised CA11143 (NANEX column) by 1 mg MegaBody CA16383; A280, SDS-PAGE and western blot [D00046 FIG. 42B; D00047 FIG. 42C]
Experimental: as §1, §2

mCherry [9] = assay: BLI (OctetRed), biotinylated Nb on streptavidin sensor, mCherry 8.23-222 nM
Experimental: (§4) Streptavidin-coated Octet® biosensors were used to capture biotinylated Nanobodies (1 μg/mL). […] All assays were performed in Hepes 25 mM pH7.5, NaCl 150 mM supplemented with BSA 0.1% and Tween²⁰ 0.005% at room temperature.

[10] = biological target: T5, FmIH_lectin_mCherry_his (CA17337); assay: displacement of FmlH_lectin_mCherry_his from immobilised CA16964 (NANEX column) by 1 mg CA17302; A280 and SDS-PAGE [D00043 FIG. 39B]
T5 construct: also called mCherry-fusion protein

mCherry [11] = assay: BLI
Experimental: as §4

mCherry [12] = assay: BLI; remark: listed apart in the source
Experimental: as §4

mCherry [13] = assay: BLI (OctetRed), biotinylated Nb on streptavidin sensor, mCherry 8.23-222 nM; remark: listed apart in the source
Experimental: as §4

[14] = biological target: T5, FmIH_lectin_mCherry_his (CA17337); assay: NANEX column: lysate with FmlH_lectin_mCherry_his on immobilised CA17341; A280/A585 and SDS-PAGE [D00045 FIG. 41B]

T1 sequence (P00740 47-461 limits assumed): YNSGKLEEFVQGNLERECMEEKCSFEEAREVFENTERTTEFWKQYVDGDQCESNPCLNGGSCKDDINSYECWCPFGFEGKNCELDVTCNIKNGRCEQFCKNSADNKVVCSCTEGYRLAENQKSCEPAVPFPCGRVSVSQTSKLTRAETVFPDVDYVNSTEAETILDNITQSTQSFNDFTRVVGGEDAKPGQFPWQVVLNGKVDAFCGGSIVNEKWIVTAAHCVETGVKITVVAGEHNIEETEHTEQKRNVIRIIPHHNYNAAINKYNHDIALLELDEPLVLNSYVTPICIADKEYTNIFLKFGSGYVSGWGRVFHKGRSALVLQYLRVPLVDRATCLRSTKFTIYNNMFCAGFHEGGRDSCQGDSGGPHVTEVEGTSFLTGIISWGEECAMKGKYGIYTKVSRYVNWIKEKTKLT
T4 sequence (chain, as listed by the source limits assumed): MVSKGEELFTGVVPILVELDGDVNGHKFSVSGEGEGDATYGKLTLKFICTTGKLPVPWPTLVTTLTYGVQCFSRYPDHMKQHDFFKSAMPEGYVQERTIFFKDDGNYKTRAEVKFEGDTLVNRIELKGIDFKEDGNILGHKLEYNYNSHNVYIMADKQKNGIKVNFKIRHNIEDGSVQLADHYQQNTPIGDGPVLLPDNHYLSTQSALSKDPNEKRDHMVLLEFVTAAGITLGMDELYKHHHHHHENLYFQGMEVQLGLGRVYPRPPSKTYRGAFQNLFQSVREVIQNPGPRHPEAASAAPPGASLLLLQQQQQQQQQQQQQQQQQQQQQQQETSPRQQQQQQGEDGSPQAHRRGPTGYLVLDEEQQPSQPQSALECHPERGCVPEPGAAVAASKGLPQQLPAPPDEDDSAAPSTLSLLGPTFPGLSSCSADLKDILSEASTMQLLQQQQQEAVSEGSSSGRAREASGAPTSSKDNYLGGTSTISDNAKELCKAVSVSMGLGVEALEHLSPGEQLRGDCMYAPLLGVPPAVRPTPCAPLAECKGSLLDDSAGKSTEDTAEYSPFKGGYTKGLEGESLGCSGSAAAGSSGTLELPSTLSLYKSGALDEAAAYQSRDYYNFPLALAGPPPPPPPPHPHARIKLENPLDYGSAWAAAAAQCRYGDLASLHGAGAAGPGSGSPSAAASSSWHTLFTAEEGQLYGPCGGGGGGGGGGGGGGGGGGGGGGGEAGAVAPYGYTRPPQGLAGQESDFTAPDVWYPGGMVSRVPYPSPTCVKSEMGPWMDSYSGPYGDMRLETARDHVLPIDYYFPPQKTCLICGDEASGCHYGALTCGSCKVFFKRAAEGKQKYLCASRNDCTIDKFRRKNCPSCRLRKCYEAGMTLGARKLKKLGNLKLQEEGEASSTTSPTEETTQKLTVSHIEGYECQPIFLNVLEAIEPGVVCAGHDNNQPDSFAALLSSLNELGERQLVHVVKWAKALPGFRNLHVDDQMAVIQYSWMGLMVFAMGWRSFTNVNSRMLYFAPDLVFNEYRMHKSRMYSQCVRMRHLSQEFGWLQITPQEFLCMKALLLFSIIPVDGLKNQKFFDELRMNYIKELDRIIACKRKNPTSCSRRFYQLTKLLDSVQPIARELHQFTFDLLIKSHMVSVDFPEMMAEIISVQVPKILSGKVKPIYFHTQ
T3 sequence (chain, as listed by the source limits assumed): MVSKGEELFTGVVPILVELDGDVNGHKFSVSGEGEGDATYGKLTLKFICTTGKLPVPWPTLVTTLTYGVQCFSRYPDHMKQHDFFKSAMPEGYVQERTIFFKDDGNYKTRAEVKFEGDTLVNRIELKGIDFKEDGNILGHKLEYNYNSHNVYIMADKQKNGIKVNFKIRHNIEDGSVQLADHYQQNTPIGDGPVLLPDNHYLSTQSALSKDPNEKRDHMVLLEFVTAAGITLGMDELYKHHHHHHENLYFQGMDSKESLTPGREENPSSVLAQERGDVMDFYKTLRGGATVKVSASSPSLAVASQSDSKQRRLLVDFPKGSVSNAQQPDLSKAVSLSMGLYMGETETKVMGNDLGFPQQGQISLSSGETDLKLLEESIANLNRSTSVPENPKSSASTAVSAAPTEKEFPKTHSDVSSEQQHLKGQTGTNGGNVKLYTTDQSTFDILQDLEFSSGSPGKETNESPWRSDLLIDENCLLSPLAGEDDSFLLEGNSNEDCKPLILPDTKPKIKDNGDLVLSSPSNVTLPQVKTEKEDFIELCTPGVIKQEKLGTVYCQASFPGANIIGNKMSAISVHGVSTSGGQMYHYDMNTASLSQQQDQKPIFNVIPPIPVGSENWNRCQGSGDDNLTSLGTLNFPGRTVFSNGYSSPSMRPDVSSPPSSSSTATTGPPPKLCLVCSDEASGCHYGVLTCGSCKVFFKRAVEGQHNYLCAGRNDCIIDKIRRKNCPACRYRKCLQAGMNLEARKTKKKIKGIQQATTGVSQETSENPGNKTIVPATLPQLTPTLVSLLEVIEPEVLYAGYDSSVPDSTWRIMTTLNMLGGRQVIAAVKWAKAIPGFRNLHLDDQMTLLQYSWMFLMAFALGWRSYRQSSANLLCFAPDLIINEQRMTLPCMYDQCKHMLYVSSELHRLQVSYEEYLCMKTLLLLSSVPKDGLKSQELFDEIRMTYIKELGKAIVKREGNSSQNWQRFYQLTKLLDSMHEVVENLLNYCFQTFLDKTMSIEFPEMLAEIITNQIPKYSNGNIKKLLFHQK

B1: CA4375, EPEA-NbSyn2 (C-term. 6xHis) (VHH)
VHH: QVQLQESGGGSVQAGGSLRLSCAASGIDSSSYCMGWFRQRPGKEREGVARINGLGGVKTAYADSVKDRFTISRDNAENTVYLQMNSLKPEDTAIYYCAAKFSPGYCGGSWSNFGYWGQGTQVTVSS
notes: Selected against human alpha-synuclein; also called monovalent CA4375; EPEA-specific Nanobody
Work on B1 yielded a Kd [1] of 60 nM.

B2: CA11143 FIX Nanobody trapper (including C-terminal 6xHis+EPEA tag) (VHH)
VHH: QVQLVESGGALVQPGGSLRLSCAASGFTFDNYAMNWVRQAPGKGLEWVSGINWNGRNTYYAESVKDRFTISRDNAKNTLYLQMNSLKSEDTAVYYCAKEIITSGGPTGKYDYWGQGTQVTVSS
notes: also called Nb CA11143
B2: binds [2].

B3: CA16388 FIX functionalized Nanobody trapper (MegaBody MbCA11143^YgjK, including C-terminal 6xHis+EPEA tag) (other)
chain: QVQLVESGGGLVKEETQSGLNNYARVVEKGQYDSLEIPAQVAASWESGRDDAAVFGFIDKEQLDKYVANGGKRSDWTVKFAENRSQDGTLLGYSLLQESVDQASYMYSDNHYLAEMATILGKPEEAKRYRQLAQQLADYINTCMFDPTTQFYYDVRIEDKPLANGCAGKPIVERGKGPEGWSPLFNGAATQANADAVVKVMLDPKEFNTFVPLGTAALTNPAFGADIYWRGRVWVDQFWFGLKGMERYGYRDDALKLADTFFRHAKGLTADGPIQENYNPLTGAQQGAPNFSWSAAHLYMLYNDFFRKQASGGGSGGGGSGGGGSGNADNYKNVINRTGAPQYMKDYDYDDHQRFNPFFDLGAWHGHLLPDGPNTMGGFPGVALLTEEYINFMASNFDRLTVWQDGKKVDFTLEAYSIPGALVQKLTAKDVQVEMTLRFATPRTSLLETKITSNKPLDLVWDGELLEKLEAKEGKPLSDKTIAGEYPDYQRKISATRDGLKVTFGKVRATWDLLTSGESEYQVHKSLPVQTEINGNRFTSKAHINGSTTLYTTYSHLLTAQEVSKEQMQIRDILARPAFYLTASQQRWEEYLKKGLTNPDATPEQTRVAVKAIETLNGNWRSPGGAVKFNTVTPSVTGRWFSGNQTWPWDTWKQAFAMAHFNPDIAKENIRAVFSWQIQPGDSVRPQDVGFVPDLIAWNLSPERGGDGGNWNERNTKPSLAAWSVMEVYNVTQDKTWVAEMYPKLVAYHDWWLRNRDHNGNGVPEYGATRDKAHNTESGEMLFTVKKSLRLSCAASGFTFDNYAMNWVRQAPGKGLEWVSGINWNGRNTYYAESVKDRFTISRDNAKNTLYLQMNSLKSEDTAVYYCAKEIITSGGPTGKYDYWGQGTQVTVSSHHHHHHEPEA
notes: also called MegaBody CA16388
B3: binds [3].

B4: CA15816 GFP-NbT54A/V55A (C-term. 6xHis + EPEA) (VHH)
VHH: QVQLVESGGGLVQAGGSLRLSCAASGRTFSTAAMGWFRQAPGKERDFVAGIYWAAGSTYYADSAKGRFTISRDNAKNTVYLQMDSLKPEDTAVYYCAARRRGFTLAPTRANEYDYWGQGTQVTVSS
modifications: biotinylated for BLI
notes: T54A/V55A mutant of CA12760; also called Nb CA15816
B4 was tested, and the Kd (GFP protein [4]) was 2.7 nM, the koff (GFP protein [4]) was 0.00225 s⁻¹ and the kon (GFP protein [4]) was 835000 M⁻¹ s⁻¹. The binding result [5] was “binds”, the binding result [6] was “binds” and the “Half-time ratio (relative to the wt Nb CA12760)” value (GFP protein [7]) was 70 fold. The “KD ratio (relative to the wt Nb CA12760)” value (GFP protein [7]) was 50 fold.

B5: CA16383 FIX functionalized Nanobody stripper (MegaBody MbCA10309^YgjK, including C-terminal 6xHis+EPEA tag) (other)
chain: QVQLVESGGGLVKEETQSGLNNYARVVEKGQYDSLEIPAQVAASWESGRDDAAVFGFIDKEQLDKYVANGGKRSDWTVKFAENRSQDGTLLGYSLLQESVDQASYMYSDNHYLAEMATILGKPEEAKRYRQLAQQLADYINTCMFDPTTQFYYDVRIEDKPLANGCAGKPIVERGKGPEGWSPLFNGAATQANADAVVKVMLDPKEFNTFVPLGTAALTNPAFGADIYWRGRVWVDQFWFGLKGMERYGYRDDALKLADTFFRHAKGLTADGPIQENYNPLTGAQQGAPNFSWSAAHLYMLYNDFFRKQASGGGSGGGGSGGGGSGNADNYKNVINRTGAPQYMKDYDYDDHQRFNPFFDLGAWHGHLLPDGPNTMGGFPGVALLTEEYINFMASNFDRLTVWQDGKKVDFTLEAYSIPGALVQKLTAKDVQVEMTLRFATPRTSLLETKITSNKPLDLVWDGELLEKLEAKEGKPLSDKTIAGEYPDYQRKISATRDGLKVTFGKVRATWDLLTSGESEYQVHKSLPVQTEINGNRFTSKAHINGSTTLYTTYSHLLTAQEVSKEQMQIRDILARPAFYLTASQQRWEEYLKKGLTNPDATPEQTRVAVKAIETLNGNWRSPGGAVKFNTVTPSVTGRWFSGNQTWPWDTWKQAFAMAHFNPDIAKENIRAVFSWQIQPGDSVRPQDVGFVPDLIAWNLSPERGGDGGNWNERNTKPSLAAWSVMEVYNVTQDKTWVAEMYPKLVAYHDWWLRNRDHNGNGVPEYGATRDKAHNTESGEMLFTVKKSLRLSCATSGIGFSIYSMGWYRQAPGKERELVASIAGNEDKDYVESVKGRFTISRDYAKNTLYLEMSGLKFEDTAMYYCAAGLRRGVSLTPYYWGQGTQVTVSSHHHHHHEPEA
notes: also called MegaBody CA16383
B5: binds [8].

B6: CA17302 mCherry Nanobody stripper (including C-terminal 6xHis+EPEA tag) (VHH)
VHH: QVQLVESGGGLVQAGGSLRLSCVASGLPFSRYNMAWFRQAPGKEREFVADIDWSGDSTYDLDSVKGRFTISRDNAKNTVYLQMSSLLPEDTAVYYCAAHFKFILAQRIKWGDMDYWGKGTQVTVSS
modifications: biotinylated for BLI
notes: also called Nb CA17302
Binder B6 has a Kd (mCherry [9]) of 1.69 nM, a koff (mCherry [9]) of 0.00102 s⁻¹ and a kon (mCherry [9]) of 619000 M⁻¹ s⁻¹. For the same binder, the binding result [10] was “binds”, the “Half time ratio (relative to wt)” value (mCherry [11]) was 1 fold and the “KD ratio (relative to wt)” value (mCherry [11]) was 1 fold. For the same binder, the “Half time ratio (relative to CA17302)” value (mCherry [12]) was 1 fold, the “KD ratio (relative to CA17302)” value (mCherry [12]) was 1 fold and the Kd (mCherry [13]) was 1.69 nM. For the same binder, the koff (mCherry [13]) was 0.00102 s⁻¹ and the kon (mCherry [13]) was 619000 M⁻¹ s⁻¹.

B7: CA17341 mCherry Nanobody trapper (CA17302 mutant) (including C-terminal 6xHis+EPEA tag) (VHH)
VHH: B6 VHH with I103A
modifications: biotinylated for BLI
notes: also called Nb CA17341
In the case of B7, the “Half time ratio (relative to wt CA17302)” value (mCherry [11]) is reported as 2.26 fold, the “KD ratio (relative to wt CA17302)” value (mCherry [11]) is reported as 2.4 fold and the binding result [14] is reported as “binds”. It also gave a Kd (mCherry [13]) of 4.05 nM, a koff (mCherry [13]) of 0.00231 s⁻¹ and a kon (mCherry [13]) of 601000 M⁻¹ s⁻¹.
